The results in this text go back to patent US20080301824A1.

The target of assay [1] is GAL4 binding domain-parkin(1-465) fusion encoded by pGBT9-parkin(1-465) (UniProt P04386). Nature of the assay: cell-based or functional assay.
Assay [2] deals with GFP-syt11 (GFP-tagged full-length human synaptotagmin XI) (human) [GFP: P42212]. Kind of assay: co-IP with anti-HA agarose from HEK293 cells, anti-GFP blot.

“GAL4 activation domain-hsyt11AB fusion encoded by pGAD10-hsyt11AB (human synaptotagmin 11, domains C2A and C2B) (from UniProt Q9BT88 157-431)” gave a β-galactosidase activity in yeast two-hybrid liquid assay, against pGAD10-hsyt11AB with pGBT9 vector control in assay [1] of 20 fold.
As to “HA-tagged parkin with missense mutation C289G (from UniProt O60260 1-465) (enzyme)”, the fold less interaction than parkinC418R in assay [2] stood at 2.5 fold less.
